Experimental data as given in patent US11459578B2, “Carbon fixation systems in plants and algae” (NMC, INC., priority 2014, dated 2022).
“Also recorded” adds a separate entry of the source.

What was measured:
Assay type in all cases: in vivo
Arabidopsis = experiment: Growth phenotypes of transgenic Arabidopsis
Description: (§1) Previously, reconstitution of a functional inorganic CCM in C3 plants to suppress photorespiration and enhance photosynthesis was proposed. In WO 2012/125737, it was hypothesized that expression of a minimum of three algal CCM proteins would be sufficient to elevate internal plastid CO2 concentrations high enough to suppress photorespiration. These three algal CCM genes included the Chlamydomonas plasma membrane-localized and ATP-dependent bicarbonate transporter, HLA3; the chloroplast envelope localized bicarbonate anion transporter, LCIA; and a chloroplast stromal-localized carbonic anhydrase (HCA-II) to accelerate conversion of bicarbonate into CO2. […] To test this hypothesis, we generated multiple independent transgenic Arabidopsis and Camelina plants expressing each CCM gene as a single gene construct, as well as a stacked 3-gene construct. The expression of each gene was controlled by the light-regulated Cab1 gene promoter.
Finally, we also grew transgenics on ammonium with sucrose which would presumably provide additional ATP via respiration. We hypothesized that growth on nitrate or ammonium with sucrose would provide additional ATP that could potentially drive HLA3 activity.

Camelina [1] = experiment: Growth phenotypes and seed recovery of transgenic Camelina
Description: as §1

Camelina [2] = experiment: CO2-dependent photosynthetic rates of transgenic Camelina
Description: FIGS. 5A-5C. Growth phenotypes of WT and LCIA transgenic (T1) Arabidopsis plants four weeks after germination. (B) Four-week-old WT (left 4 plants) and independent transgenic Camelina (right 4 plants) expressing LCIA. (C) CO2-dependent photosynthetic rates of WT and LCIA transgenic Camelina.
We propose that the substantially greater carbon sink-strength of Camelina relative to Arabidopsis accounts for the enhanced growth phenotype observed in Camelina LCIA plants. In support of this hypothesis, we observed that Camelina LCIA transgenics had higher CO2-dependent rates of photosynthesis and lower CO2 compensation points (40 vs. 53 ppm CO2) than WT plants indicative of facilitated inorganic carbon uptake by LCIA (FIG. 5C).

B1: LCIA: chloroplast envelope localized bicarbonate anion transporter, expressed in transgenic plants (protein, listed as Chlamydomonas reinhardtii)
chain: MQTTMTRPCLAQPVLRSRVLRSPMRVVAASAPTAVTTVVTSNGNGNGHFQAATTPVPPTPAPVAVSAPVRAVSVLTPPQVYENAINVGAYKAGLTPLATFVQGIQAGAYIAFGAFLAISVGGNIPGVAAANPGLAKLLFALVFPVGLSMVTNCGAELFTGNTMMLTCALIEKKATWGQLLKNWSVSYFGNFVGSIAMVAAVVATGCLTTNTLPVQMATLKANLGFTEVLSRSILCNWLVCCAVWSASAATSLPGRILALWPCITAFVAIGLEHSVANMFVIPLGMMLGAEVTWSQFFFNNLIPVTLGNTIAGVLMMAIAYSISFGSLGKSAKPATA
growth phenotype relative to WT (Arabidopsis): substantially impaired in growth; also recorded: severely depressed growth phenotypes
growth phenotype / viability relative to WT (Camelina [1]): grew better than WT; also recorded: increased growth rates
CO2-dependent photosynthetic rates relative to WT (Camelina [2]): higher CO2-dependent photosynthetic rates
CO2 compensation point (Camelina [2]): 40 ppm CO2
CO2 compensation points relative to WT (Camelina [2]): reduced CO2 compensation points
higher photosynthetic rates than WT (Camelina [2]; ambient CO2 concentrations): up to 25%
